This note sets out measurements from US20160009801A1 (EMORY UNIVERSITY, published 2016).

In general, Kd refers to a measure of binding affinity in units of concentration.

Assay [1] concerns the target T1, purified human GPIb-IX complex (human, UniProt P07359 17-652; P13224 26-206; P14770 17-177).
T1 construct: mature; Native complex purified from outdated human apheresis platelets; also called purified human glycoprotein (GP)Ib-IX; immobilized GPIb-IX
The experiment in a line: ELISA, purified mAb titrated on immobilized purified human GPIb-IX, fitted Kd. For orientation: In an ELISA, binding on a coated surface is turned into a signal by an enzyme label.
Protocol: (A, C, D) GPIb-IX or the peptide was immobilized in microtiter plates. Purified mAbs, each identified by the clone name and colored as indicated, and negative controls, in the form of mouse IgG or BSA, were added to the coated wells. The bound Ab was detected with biotinylated goat anti-mouse IgG. Data are presented as the mean SD (n=3).
After incubation in the blocking buffer (20 mmol L⁻¹ HEPES, 0.2 mol L⁻¹ NaCl, 0.05% Tween-20, 2% BSA, pH 7.4) at room temperature (RT) for 2 h, different doses of normal mouse IgG or purified mAb dissolved in the blocking buffer were added to the wells and incubated for 1 h. The wells were then washed three times with the blocking buffer without BSA and incubated for an additional 1 h with biotinylated goat anti-mouse IgG (1:50 in the blocking buffer). After three washes, the wells were incubated for 1 h with streptavidin alkaline phosphatase (1:2000 in the blocking buffer).

In assay [2] the target is T2, wild-type murine GPIba on WT (C57BL/6J) mouse platelets (mouse, UniProt O35930 17-734).
T2 construct: whole, on cells; also called mouse GPIba; WT mouse platelets
T2 sequence (looked up): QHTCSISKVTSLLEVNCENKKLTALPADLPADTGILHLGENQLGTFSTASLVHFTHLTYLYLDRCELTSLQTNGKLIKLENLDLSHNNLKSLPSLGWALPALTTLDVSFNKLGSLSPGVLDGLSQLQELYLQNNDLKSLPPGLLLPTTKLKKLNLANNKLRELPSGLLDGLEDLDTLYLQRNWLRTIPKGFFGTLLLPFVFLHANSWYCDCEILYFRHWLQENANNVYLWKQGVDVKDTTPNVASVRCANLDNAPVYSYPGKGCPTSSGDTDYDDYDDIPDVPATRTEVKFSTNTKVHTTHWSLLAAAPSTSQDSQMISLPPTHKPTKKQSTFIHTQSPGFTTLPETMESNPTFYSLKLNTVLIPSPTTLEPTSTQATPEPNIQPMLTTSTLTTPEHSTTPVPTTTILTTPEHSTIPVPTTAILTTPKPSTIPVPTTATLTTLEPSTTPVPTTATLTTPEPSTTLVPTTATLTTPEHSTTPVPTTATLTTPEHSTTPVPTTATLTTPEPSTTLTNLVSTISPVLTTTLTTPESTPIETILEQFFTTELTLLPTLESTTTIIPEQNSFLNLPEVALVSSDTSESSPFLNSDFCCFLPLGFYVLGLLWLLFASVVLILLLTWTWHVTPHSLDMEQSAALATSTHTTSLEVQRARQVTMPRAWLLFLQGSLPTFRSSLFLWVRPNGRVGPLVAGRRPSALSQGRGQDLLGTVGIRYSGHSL
The experiment in a line: flow cytometry, biotin-labeled 5G6 on mouse whole blood, gated on platelets, FITC-streptavidin. Background: Flow cytometry measures light scatter and fluorescence of single cells or particles in a stream.
Protocol: The binding to platelets was analyzed by flow cytometry with gating specific on platelets.

The target of assay [3] is T3, human glycoprotein Ib alpha (GPIba) on platelets (human, UniProt P07359 17-652).
T3 construct: whole, on cells; On platelets GPIba is part of the GPIb-IX-V complex; also called human GPIba; washed human platelets
The experiment in a line: flow cytometry on washed human platelets, FITC goat anti-mouse IgG.

Where a chain is given by its changes, count along the chain named.

B1: monoclonal antibody 5G6 (antibody, V domains shown)
VH: QVTLKESGPGILQPSQTLSLTCSFSGFSLSTSNMGVVWIRQPSGKGLEWLLHILWNDGKFYNPALKSRLTISKDTYNNQVFLKIANVDTADTATYYCARLFTTTTSGYFDVWGAGTTVTVSS
VL: DIQMTQSPASLSASVGETVTITCRASGNIYNYLAWYQQKQGKSPQLLVYNAKTLADGVPSRFSGSGSGTQYSLKINSLQPEDFGSYFCQHFWDTPWTFGGGTKLEIK
notes: Mouse hybridoma mAb raised against the human GPIba Glu455-Phe478 peptide; also called clone 5G6; 5G6.B4
B1 displayed a Kd in assay [1] of 3.29 nM. Besides, in assay [2], the binding result is reported as “no binding (tested: 4 µg mL^-1)”.

B2: monoclonal antibody 15C6 (antibody, V domains shown)
VH: B1 VH with P42S, T102S
VL: B1 VL with Y30H, K52E, G66E, S85T, F87Y
notes: Mouse hybridoma mAb; also called 15C6.D3
Consider B2, for which, in assay [1], the Kd is 28.2 nM.

B3: monoclonal antibody 3D1 (antibody, V domains shown)
VH: QIQLVQSGPELKKPGETVKISCKASGYTFTDFAMHWVKQAPRKGLKWMGWINTETGEPTYADDFKGRFAFSLGTSASTAFLQINNLKNEDTATYFCSSDPLDYWGQGTTLTVSS
VL: DVVVTQTPLSLPVSFGDQVSISCRSSQSLTNSYGNTYLSWFLHKPGQSPQLLIYEISNRFSGVPDRFSGSGSGTDFTLKISTIKPEDLGIYYCLQGTHQPWTFGGGTKLEIK
notes: Mouse hybridoma mAb; also called 3D1.C1; 3D1.E3
Turning to B3, the binding result in assay [3] is given as “binds”.
